Measured values published in paper PMC10786891, “Massively parallel profiling of RNA-targeting CRISPR-Cas13d”.
Numbering of substitutions follows the chain as printed. In names and notes the source's numbering stands.

T1: EsCas13d, nuclease-dead (Eubacterium siraeum, UniProt B0MS50, R295A;H300A;R849A;H854A)
T1 sequence: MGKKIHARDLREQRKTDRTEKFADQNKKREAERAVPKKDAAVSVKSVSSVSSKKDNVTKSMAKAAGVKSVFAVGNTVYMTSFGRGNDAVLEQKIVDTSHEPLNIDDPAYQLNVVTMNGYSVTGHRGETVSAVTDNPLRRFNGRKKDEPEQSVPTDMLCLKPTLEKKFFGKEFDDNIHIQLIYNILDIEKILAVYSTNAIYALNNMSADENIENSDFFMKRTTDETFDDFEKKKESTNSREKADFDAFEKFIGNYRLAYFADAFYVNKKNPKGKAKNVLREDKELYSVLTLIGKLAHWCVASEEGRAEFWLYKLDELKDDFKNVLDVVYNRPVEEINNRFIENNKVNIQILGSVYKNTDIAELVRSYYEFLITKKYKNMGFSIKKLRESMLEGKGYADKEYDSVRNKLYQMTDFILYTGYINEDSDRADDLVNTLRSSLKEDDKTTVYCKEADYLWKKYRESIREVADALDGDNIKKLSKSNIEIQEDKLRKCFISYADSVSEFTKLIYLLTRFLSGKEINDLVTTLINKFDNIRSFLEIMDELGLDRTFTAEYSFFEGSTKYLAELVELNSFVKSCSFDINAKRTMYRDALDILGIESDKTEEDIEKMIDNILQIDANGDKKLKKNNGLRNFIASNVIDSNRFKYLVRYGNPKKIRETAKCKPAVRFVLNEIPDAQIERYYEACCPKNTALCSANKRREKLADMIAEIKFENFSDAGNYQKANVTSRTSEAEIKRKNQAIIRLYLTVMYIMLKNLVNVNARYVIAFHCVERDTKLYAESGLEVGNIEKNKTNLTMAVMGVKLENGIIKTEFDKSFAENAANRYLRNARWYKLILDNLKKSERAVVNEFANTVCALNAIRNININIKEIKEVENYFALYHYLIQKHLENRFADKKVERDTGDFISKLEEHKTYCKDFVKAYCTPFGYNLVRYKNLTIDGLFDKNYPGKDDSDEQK

B1: target 2 MT 5'PFS UUG 3'PFS UUU (mixed)
RNA 1: CACCCGUGCAAAAUUGCAGGGGUCUAAAACCUUCUCCAAAUUGUUUCAUCCU
RNA 2: GGGAAUGGAUCCACAUCUACGAAUUCUUGAGGAUGAAACAAUUUGGAGAAGUUUAGAUCGGAAGAGCACACGU
B2: target 2 MT 5'PFS AUA 3'PFS UCA (mixed)
RNA 1: B1 RNA 1
RNA 2: B1 RNA 2 with U27A, G29A, U53C, U54A
B3: target 2 MT 5'PFS CGG 3'PFS ACU (mixed)
RNA 1: B1 RNA 1
RNA 2: B1 RNA 2 with U27C, U28G, U52A, U53C
B4: target 2 MT 5'PFS UAG 3'PFS CGA (mixed)
RNA 1: B1 RNA 1
RNA 2: B1 RNA 2 with U28A, U52C, U53G, U54A
B5: target 2 MT 5'PFS AUU 3'PFS AUA (mixed)
RNA 1: B1 RNA 1
RNA 2: B1 RNA 2 with U27A, G29U, U52A, U54A
B6: target 2 MT 5'PFS UUU 3'PFS AGA (mixed)
RNA 1: B1 RNA 1
RNA 2: B1 RNA 2 with G29U, U52A, U53G, U54A
B7: target 2 MT 5'PFS GCU 3'PFS ACU (mixed)
RNA 1: B1 RNA 1
RNA 2: B1 RNA 2 with U27G, U28C, G29U, U52A, U53C
B8: target 2 MT 5'PFS CAU 3'PFS UCU (mixed)
RNA 1: B1 RNA 1
RNA 2: B1 RNA 2 with U27C, U28A, G29U, U53C
B9: target 2 MT 5'PFS GUC 3'PFS AUC (mixed)
RNA 1: B1 RNA 1
RNA 2: B1 RNA 2 with U27G, G29C, U52A, U54C
B10: target 2 MT 5'PFS GUC 3'PFS AUU (mixed)
RNA 1: B1 RNA 1
RNA 2: B1 RNA 2 with U27G, G29C, U52A
B11: target 2 MT 5'PFS GUC 3'PFS AUA (mixed)
RNA 1: B1 RNA 1
RNA 2: B1 RNA 2 with U27G, G29C, U52A, U54A
B12: target 2 MT 5'PFS UAG 3'PFS CGG (mixed)
RNA 1: B1 RNA 1
RNA 2: B1 RNA 2 with U28A, U52C, U53G, U54G
B13: target 2 MT 5'PFS UUU 3'PFS AGG (mixed)
RNA 1: B1 RNA 1
RNA 2: B1 RNA 2 with G29U, U52A, U53G, U54G
B14: target 2 MT 5'PFS GGC 3'PFS CCA (mixed)
RNA 1: B1 RNA 1
RNA 2: B1 RNA 2 with U27G, U28G, G29C, U52C, U53C, U54A
B15: target 2 MT 5'PFS UAA 3'PFS CUG (mixed)
RNA 1: B1 RNA 1
RNA 2: B1 RNA 2 with U28A, G29A, U52C, U54G
B16: target 2 MT 5'PFS GCA 3'PFS AGU (mixed)
RNA 1: B1 RNA 1
RNA 2: B1 RNA 2 with U27G, U28C, G29A, U52A, U53G
B17: target 2 MT 5'PFS GCU 3'PFS ACA (mixed)
RNA 1: B1 RNA 1
RNA 2: B1 RNA 2 with U27G, U28C, G29U, U52A, U53C, U54A
B18: target 2 MT 5'PFS CGG 3'PFS ACG (mixed)
RNA 1: B1 RNA 1
RNA 2: B1 RNA 2 with U27C, U28G, U52A, U53C, U54G
B19: target 2 MT 5'PFS GCU 3'PFS ACC (mixed)
RNA 1: B1 RNA 1
RNA 2: B1 RNA 2 with U27G, U28C, G29U, U52A, U53C, U54C
B20: target 2 MT 5'PFS UAA 3'PFS CUC (mixed)
RNA 1: B1 RNA 1
RNA 2: B1 RNA 2 with U28A, G29A, U52C, U54C
B21: target 2 MT 5'PFS AGC 3'PFS UUU (mixed)
RNA 1: B1 RNA 1
RNA 2: B1 RNA 2 with U27A, U28G, G29C
B22: target 2 MT 5'PFS GGU 3'PFS UUU (mixed)
RNA 1: B1 RNA 1
RNA 2: B1 RNA 2 with U27G, U28G, G29U
B23: target 2 MT 5'PFS UAA 3'PFS CUA (mixed)
RNA 1: B1 RNA 1
RNA 2: B1 RNA 2 with U28A, G29A, U52C, U54A
B24: target 2 MT 5'PFS GAA 3'PFS UUC (mixed)
RNA 1: B1 RNA 1
RNA 2: B1 RNA 2 with U27G, U28A, G29A, U54C
B25: target 2 MT 5'PFS CGG 3'PFS ACC (mixed)
RNA 1: B1 RNA 1
RNA 2: B1 RNA 2 with U27C, U28G, U52A, U53C, U54C
B26: target 2 MT 5'PFS AUA 3'PFS UCG (mixed)
RNA 1: B1 RNA 1
RNA 2: B1 RNA 2 with U27A, G29A, U53C, U54G
B27: target 2 MT 5'PFS GUC 3'PFS AUG (mixed)
RNA 1: B1 RNA 1
RNA 2: B1 RNA 2 with U27G, G29C, U52A, U54G
B28: target 2 MT 5'PFS UAA 3'PFS CUU (mixed)
RNA 1: B1 RNA 1
RNA 2: B1 RNA 2 with U28A, G29A, U52C
B29: target 2 MT 5'PFS AUA 3'PFS UCU (mixed)
RNA 1: B1 RNA 1
RNA 2: B1 RNA 2 with U27A, G29A, U53C
B30: target 2 MT 5'PFS AUA 3'PFS UCC (mixed)
RNA 1: B1 RNA 1
RNA 2: B1 RNA 2 with U27A, G29A, U53C, U54C
B31: target 2 MT 5'PFS AGC 3'PFS UUA (mixed)
RNA 1: B1 RNA 1
RNA 2: B1 RNA 2 with U27A, U28G, G29C, U54A
B32: target 2 MT 5'PFS CGG 3'PFS ACA (mixed)
RNA 1: B1 RNA 1
RNA 2: B1 RNA 2 with U27C, U28G, U52A, U53C, U54A
B33: target 2 MT 5'PFS AGC 3'PFS UUG (mixed)
RNA 1: B1 RNA 1
RNA 2: B1 RNA 2 with U27A, U28G, G29C, U54G
B34: target 2 MT 5'PFS GCU 3'PFS ACG (mixed)
RNA 1: B1 RNA 1
RNA 2: B1 RNA 2 with U27G, U28C, G29U, U52A, U53C, U54G
B35: target 1 G12U,A20U (mixed)
RNA 1: CACCCGUGCAAAAAUGCAGGGGUCUAAAACUGAGCGGAUAACCUCUCUAUGG
RNA 2: GGGAAUGGAUCCACAUCUACGAAUUCGUACCUUAGAGAGUUUAUCCGCUCACCGAGAUCGGAAGAGCACACGU
B36: target 1 A9C,G15A (mixed)
RNA 1: B35 RNA 1
RNA 2: B35 RNA 2 with U32A, G37A, U40G, A43C
B37: target 1 G5A,C7A (mixed)
RNA 1: B35 RNA 1
RNA 2: B35 RNA 2 with U32A, U40G, C45A, G47A
B38: target 1 C7U,A18C (mixed)
RNA 1: B35 RNA 1
RNA 2: B35 RNA 2 with U32A, A34C, U40G, C45U

Target: T1, EsCas13d, nuclease-dead
Assay: crRNA (strand 1, pre-loaded); Mg2+; 40 mM Tris-HCl pH 7.5, 150 mM NaCl, 6 mM MgCl2, 1 mM DTT, 0.1% Tween-20, 0.2 mg/ml BSA; 25 C; 10 min per concentration, then washed
Conditions: tags: His6-TwinStrep-SUMO cleaved; N-terminal SNAP kept (SNAP-Surface 488); label: 3' end held by stalled T7 RNA polymerase

Binder	Kd [nM]
B1	25.5 ± 3.3
B2	12.3 ± 2.6
B3	6.8 ± 1.1
B4	2.55 ± 0.33
B5	5.3 ± 0.4
B6	7.3 ± 0.8
B7	23 ± 4
B8	4.7 ± 0.7
B9	13.5 ± 1.2
B10	11.2 ± 1.3
B11	12.6 ± 1.6
B12	2.89 ± 0.35
B13	4.9 ± 0.6
B14	16.9 ± 2.7
B15	6.2 ± 1.1
B16	28 ± 10
B17	15 ± 4
B18	4.05 ± 0.24
B19	~30

Binder	Kd [nM]
B20	6.7 ± 0.9
B21	20 ± 4
B22	68 ± 20
B23	4.6 ± 0.5
B24	~70
B25	12 ± 1.9
B26	20 ± 6
B27	15.6 ± 1.9
B28	6.9 ± 1.5
B29	33 ± 15
B30	15.6 ± 2.1
B31	10.9 ± 2.4
B32	5 ± 0.5
B33	10.6 ± 1.4
B34	14.6 ± 1.4
B35	27.5 ± 2.3
B36	35 ± 5
B37	10.3 ± 0.6
B38	55 ± 5
